Results published in US20220396616A1 (SANYOU BIOPHARMACEUTICALS, published 2022).

Legend:
human CLDN18.2 [1] = target: human CLDN18.2 (human); assay: cell-based or functional assay
human CLDN18.1 [2] = target: T1, human CLDN18.1 (human, UniProt P56856 1-261); assay: flow cytometry, phage supernatant on hCLDN18.1-expressing HEK293 cells
T1 construct: Full length, overexpressed on HEK293 cells; also called hCLDN18.1; human CLDN18.1-HEK293
Source text: (§1) firstly, 1×10⁵ of human CLDN18.2-HEK293T and human CLDN18.1-HEK293 cells were taken, respectively and centrifuged at a low speed of 500 g, and the supernatant was removed.

human CLDN18.2 [3] = target: T2, human CLDN18.2 (human); assay: flow cytometry, phage supernatant on hCLDN18.2-expressing HEK293T cells
T2 construct: also called hCLDN18.2; huCLDN18.2
Source text: as §1

human CLDN18.2 [4] = target: T2, human CLDN18.2; assay: flow cytometry, phage supernatant; hCLDN18.2 cells against hCLDN18.1 cells
Source text: as §1

human CLDN18.1 [5] = target: T1, human CLDN18.1; assay: flow cytometry, phage supernatant on human CLDN18.1-HEK293 cells
Source text: as §1

human CLDN18.1 [6] = target: T1, human CLDN18.1; assay: flow cytometry on CLDN18.1-HEK293 cells, different concentrations
Procedure: Therefore, in this example, different concentrations of the antibody (including the high concentration of 100 μg/mL) were used to incubate with CLDN18.1-HEK293 in vitro. […] The antibody at different concentrations and target cells CLDN18.1-HEK293 were incubated at 4° C. for 1 h and then rinsed three times with the FACS buffer mentioned above. 0.5 μg (0.5 mg/ml) of PE-labelled goat anti-human IgG Fc antibody (Abcam, ab98596) was added and incubated at 4° C. for another 1 h. […] The binding strength and the positive rate of cell binding were recorded.

T1 sequence (P56856 whole entry): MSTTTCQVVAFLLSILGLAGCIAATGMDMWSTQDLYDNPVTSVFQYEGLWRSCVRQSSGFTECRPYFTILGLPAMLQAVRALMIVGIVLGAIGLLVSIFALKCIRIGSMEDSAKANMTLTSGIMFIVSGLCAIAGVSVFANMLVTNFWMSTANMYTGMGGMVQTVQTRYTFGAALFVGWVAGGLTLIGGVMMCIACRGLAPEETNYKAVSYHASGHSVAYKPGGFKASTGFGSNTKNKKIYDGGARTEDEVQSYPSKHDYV

B1: IMAB362 antibody (antibody, V domains shown)
VH: QVQLQQPGAELVRPGASVKLSCKASGYTFTSYWINWVKQRPGQGLEWIGNIYPSDSYTNYNQKFKDKATLTVDKSSSTAYMQLSSPTSEDSAVYYCTRSWRGNSFDYWGQGTTLTVSS
VL: DIVMTQSPSSLTVTAGEKVTMSCKSSQSLLNSGNQKNYLTWYQQKPGQPPKLLIYWASTRESGVPDRFTGSGSGTDFTLTISSVQAEDLAVYYCQNDYSYPFTFGSGTKLEIKR
Human CLDN18.2 [1]
  CDC cell killing on CLDN18.2-KATOIII cells, EC50 (run with NA3S-H1): 149 nM
  CDC cell killing on human CLDN18.2-HEK293T cells, EC50: 0.936 nM
  CDC cell killing on human CLDN18.2-KATOIII tumor cells, EC50 (run with NA1-S, FIG. 6b): 50.9 nM
  CDC cell killing on human CLDN18.2-KATOIII tumor cells, EC50 (run with NA3-S, FIG. 7d): 85.8 nM
  Fab-ZAP cell killing (internalization) on CLDN18.2-HEK293T cells, IC50 (run with NA1-S): 0.24 nM
  Fab-ZAP cell killing (internalization) on CLDN18.2-HEK293T cells, IC50 (run with NA3-S): 0.32 nM

B2: A18-1-48 (VHH)
VHH: EVQLVESGGGLVQPGGSLRLSCAASGNIFRIDTMGWYRQAPGKQREFVAGISRGGSTNYAHSVKERFTISRDNAKNTMYLQMNSLKSEDTAGYYCNAQAWDPGTIRYLEVWGQGTLVTVSA
Human CLDN18.1 [2]
  mean fluorescence intensity: 3450 MFI
Human CLDN18.2 [3]
  mean fluorescence intensity: 357000 MFI
Human CLDN18.2 [4]
  ratio of mean fluorescence intensities on hCLDN18.2 and hCLDN18.1 cells: 103

B3: A18-1-78 (VHH)
VHH: EVQLQESGGGLVQPGGSLRLSCAASGNIFRIDTMGWYRQAPGKQREFVAGISRGGSTNYAHSVKERFTISRDNAKNTMYLQMNSLKSEDTAGYYCNAQAWDPGTIRYLEVWGQGTLVTVSA
Human CLDN18.1 [2]
  mean fluorescence intensity: 3680 MFI
Human CLDN18.2 [3]
  mean fluorescence intensity: 385000 MFI
Human CLDN18.2 [4]
  ratio of mean fluorescence intensities on hCLDN18.2 and hCLDN18.1 cells: 105

B4: A18-1-70 (VHH)
VHH: QVQLVESGGGLVQPGGSLRLSCAASGNIFRIDTMGWYRQAPGKQRELVAGISRGGTTTYAHSVKERFTISRDNAKNTMYLQMNSLKSEDTAGYYCNAQAWDPGTFRYLEVWGQGTLVTVSA
Human CLDN18.1 [2]
  mean fluorescence intensity: 6230 MFI
Human CLDN18.2 [3]
  mean fluorescence intensity: 402000 MFI
Human CLDN18.2 [4]
  ratio of mean fluorescence intensities on hCLDN18.2 and hCLDN18.1 cells: 65

B5: A18-1-75 (VHH)
VHH: EVQLVESGGGLVQPGGSLRLSCAASGNIFRIDTMVWYRQAPGKQRELVAGISRGGTTNYAHSVKGRFTISRDNAKNTMYLQMNSLKSEDTATYYCNAQAWDVGTIRYLEVWGQGTLVTVSA
Human CLDN18.1 [2]
  mean fluorescence intensity: 3890 MFI
Human CLDN18.2 [3]
  mean fluorescence intensity: 387000 MFI
Human CLDN18.2 [4]
  ratio of mean fluorescence intensities on hCLDN18.2 and hCLDN18.1 cells: 99

B6: A293-82 (VHH)
VHH: EVQVVESGGGLVQPGGSLRLSCAASGNIFRIDTMVWYRQAPGKQRELVAGISRGGTTNYAHSVKGRFTISRDNAKNTMYLQMNSLKSEDTATYYCNAQAWDVGTIRYLEVWGQGTLVTVSA
Human CLDN18.1 [2]
  mean fluorescence intensity: 4320 MFI
Human CLDN18.2 [3]
  mean fluorescence intensity: 442000 MFI
Human CLDN18.2 [4]
  ratio of mean fluorescence intensities on hCLDN18.2 and hCLDN18.1 cells: 102

B7: A-2-4 (VHH)
VHH: EVQVQESGGGLVQAGTSLRLSCAASGNIFRIDTMGWYRQAPGKQRELVAGISRGGTTTYAHSVKERFTISRDNAKNTMYLQMNSLKSEDTAGYYCNAQAWDPGTFRYLEVWGQGTLVTVSA
notes: also called candidate nanobody A-2-4
Human CLDN18.1 [2]
  mean fluorescence intensity: 4330 MFI
Human CLDN18.2 [3]
  mean fluorescence intensity: 592000 MFI
Human CLDN18.2 [4]
  ratio of mean fluorescence intensities on hCLDN18.2 and hCLDN18.1 cells: 137

B8: A18-1-50 (VHH)
VHH: EVQVQESGGGLVQPGGSLRLSCAASGNIFRIDTMGWYRQAPGKQRELVAGISRGGTTTYAHSVKERFTISRDNAKNTMYLQMNSLKSEDTAGYYCNAQAWDPGTFRYLEVWGQGTLVTVSA
Human CLDN18.1 [2]
  mean fluorescence intensity: 6040 MFI
Human CLDN18.2 [3]
  mean fluorescence intensity: 403000 MFI
Human CLDN18.2 [4]
  ratio of mean fluorescence intensities on hCLDN18.2 and hCLDN18.1 cells: 67

B9: A18-1-64 (VHH)
VHH: QVQLVESGGGLVQPGGSLRLSCAASGNIFRIDTMGWYRQAPGKQREFVAGISRGGSTNYAHSVKERFTISRDNAKNTMYLQMNSLKSEDTAGYYCNAQAWDPGTIRYLEVWGQGTLVTVSS
Human CLDN18.1 [2]
  mean fluorescence intensity: 3500 MFI
Human CLDN18.2 [3]
  mean fluorescence intensity: 406000 MFI
Human CLDN18.2 [4]
  ratio of mean fluorescence intensities on hCLDN18.2 and hCLDN18.1 cells: 116

B10: A18-1-42 (VHH)
VHH: EVQVVESGGGLVQPGGSLRLSCAASGSILHIPVMSWYRQAPGKQRELVAGISTGGTTNYGDSVKGRFTISRDNAKNTVYLQMNSLKPEDTAAYYCNVLVVSGIGSHLEVWG
notes: also called candidate nanobody A18-1-42
Human CLDN18.1 [2]
  mean fluorescence intensity: 1010 MFI
Human CLDN18.2 [3]
  mean fluorescence intensity: 396000 MFI
Human CLDN18.1 [5]
  binding result: no binding
Human CLDN18.2 [4]
  ratio of mean fluorescence intensities on hCLDN18.2 and hCLDN18.1 cells: 392

B11: A18-1-44 (VHH)
VHH: EVQLVESGGGLVQPGGSLRLSCAASGSIFNLPVMSWYRQAPGKQRELVAGISTGGTTNYGDSVKGRFTISRDNAKNTVYLQMNSLKPEDTAVYYCNVLVISGIGSHLEVWG
Human CLDN18.1 [2]
  mean fluorescence intensity: 3740 MFI
Human CLDN18.2 [3]
  mean fluorescence intensity: 390000 MFI
Human CLDN18.1 [5]
  binding result: no binding
Human CLDN18.2 [4]
  ratio of mean fluorescence intensities on hCLDN18.2 and hCLDN18.1 cells: 104

B12: A293-34 (VHH)
VHH: QVQLQESGGGLVQPGGSLRLSCAASGTFFNIPVMGWYRQAPGKQRELVAGISTGGTTNYGDSVKGRFTISRDNAKNTVYLQMNSLKPEDTAVYYCNVLVISGIGSHLEVWG
notes: also called candidate nanobody A293-34
Human CLDN18.1 [2]
  mean fluorescence intensity: 2430 MFI
Human CLDN18.2 [3]
  mean fluorescence intensity: 454000 MFI
Human CLDN18.1 [5]
  binding result: no binding
Human CLDN18.2 [4]
  ratio of mean fluorescence intensities on hCLDN18.2 and hCLDN18.1 cells: 187

B13: A18-1-45 (VHH)
VHH: EVQLQESGGGLVQPGGSLRLSCAASGIIFNIPVMSWYRQAPGKQRELVAGISTGGTTNYGDSVKGRFTISRDNAKNTVYLQMNSLKPEDTAVYYCNVLVVSGIGSHLEVWG
Human CLDN18.1 [2]
  mean fluorescence intensity: 4750 MFI
Human CLDN18.2 [3]
  mean fluorescence intensity: 369000 MFI
Human CLDN18.1 [5]
  binding result: no binding
Human CLDN18.2 [4]
  ratio of mean fluorescence intensities on hCLDN18.2 and hCLDN18.1 cells: 78

B14: A18-1-62 (VHH)
VHH: QVQLVESGGGLVQPGGSLRLSCAASGTIFNIPVMGWYRQAPGKQRELVAGISTGGTTNYGDSVKGRFTISRDNAKNTVYLQMNSLKPEDTAVYYCNVLVISGIGSHLEVWG
Human CLDN18.1 [2]
  mean fluorescence intensity: 2940 MFI
Human CLDN18.2 [3]
  mean fluorescence intensity: 372000 MFI
Human CLDN18.1 [5]
  binding result: no binding
Human CLDN18.2 [4]
  ratio of mean fluorescence intensities on hCLDN18.2 and hCLDN18.1 cells: 126

B15: A-2-3 (VHH)
VHH: EVQLVESGGGLVQPGGSLRLSCAASGSIFNLPVMSWYRQAPGKQRELVAGISTGGTTNYGDSVKGRFTISRDNAKNTVYLQMNSLKPEDTAVYYCNVLVVSGIGSHLEVWG
Human CLDN18.1 [2]
  mean fluorescence intensity: 3260 MFI
Human CLDN18.2 [3]
  mean fluorescence intensity: 570000 MFI
Human CLDN18.1 [5]
  binding result: no binding
Human CLDN18.2 [4]
  ratio of mean fluorescence intensities on hCLDN18.2 and hCLDN18.1 cells: 175

B16: A18-1-6 (VHH)
VHH: EVQVQESGGGLVQPGGSLRLSCAASGSIFNIPVMSWYRQAPGKQRELVAGISTGGTTNYGDSVKGRFTISRDNAKTTVYLQMNSLKPEDTAVYYCNVLVISGIGSHLEVWG
Human CLDN18.1 [2]
  mean fluorescence intensity: 1970 MFI
Human CLDN18.2 [3]
  mean fluorescence intensity: 396000 MFI
Human CLDN18.1 [5]
  binding result: no binding
Human CLDN18.2 [4]
  ratio of mean fluorescence intensities on hCLDN18.2 and hCLDN18.1 cells: 201

B17: A293-55 (VHH)
VHH: QVQLVESGGGSVQPGGSLRLSCAASGSIFHIVVMGWYRQAPGKQRELVAGMSTGGTTNYGDSVKGRFTISRDNAKNTVYLQMNSLKPEDTAVYYCNVLVISGIGSHLEVWG
Human CLDN18.1 [2]
  mean fluorescence intensity: 3340 MFI
Human CLDN18.2 [3]
  mean fluorescence intensity: 392000 MFI
Human CLDN18.1 [5]
  binding result: no binding
Human CLDN18.2 [4]
  ratio of mean fluorescence intensities on hCLDN18.2 and hCLDN18.1 cells: 117

B18: A18-1-65 (VHH)
VHH: EVQLQESGGGLVQPGGSLRLSCAASGTIFNLPVMSWYRQAPGKQRELVAGISTGGTTNYGDSVKGRFTISRDNARNTVYLQMNSLKPEDTAVYYCNVLVVSGIGSHLEVWG
Human CLDN18.1 [2]
  mean fluorescence intensity: 5890 MFI
Human CLDN18.2 [3]
  mean fluorescence intensity: 428000 MFI
Human CLDN18.1 [5]
  binding result: no binding
Human CLDN18.2 [4]
  ratio of mean fluorescence intensities on hCLDN18.2 and hCLDN18.1 cells: 73

B19: A18-1-63 (VHH)
VHH: QVQLQESGGGLVQPGGSLRLSCAASGSIFNIPVMGWYRQAPGKQRELVAGISTGGTTNYGDSVKGRFTISRDNAKNTVYLQMNSLKPEDTAVYYCNVLVVSGIGSTLEVWG
notes: also called candidate nanobody A18-1-63
Human CLDN18.1 [2]
  mean fluorescence intensity: 175 MFI
Human CLDN18.2 [3]
  mean fluorescence intensity: 385000 MFI
Human CLDN18.1 [5]
  binding result: no binding
Human CLDN18.2 [4]
  ratio of mean fluorescence intensities on hCLDN18.2 and hCLDN18.1 cells: 2200

B20: humanized antibody NA3S-H1 (Fc fusion)
chain: QVQLVESGGGLVQPGGSLRLSCAASGSIFNIPVMGWYRQAPGKQRELVAGISTGGTTNYGDSVKGRFTISRDNAKNTVYLQMNSLKPEDTAVYYCNVLVVSGIGSTLEVWGQGTLVTVSS
notes: Humanized form of NA3-S; also called candidate antibody NA3S-H1; humanized molecule NA3S-H1; not shown: a human IgG Fc is implied (detected with anti-human IgG Fc)
Human CLDN18.1 [6]
  binding result: no binding (tested: 100 µg/mL)
Human CLDN18.2 [1]
  CDC cell killing on CLDN18.2-KATOIII cells, EC50: 10.4 nM
